# B1: mouse TRPC5 construct lacking the C-terminal 210 residues (a.a. 1-765) (domain or fragment, UniProt Q9QX29 1-765, looked up)
# chain: MAQLYYKKVNYSPYRDRIPLQIVRAETELSAEEKAFLSAVEKGDYATVKQALQEAEIYYNVNINCMDPLGRSALLIAIENENLEIMELLLNHSVYVGDALLYAIRKEVVGAVELLLSYRKPSGEKQVPTLMMDTQFSEFTPDITPIMLAAHTNNYEIIKLLVQKRVTIPRPHQIRCNCVECVSSSEVDSLRHSRSRLNIYKALASPSLIALSSEDPILTAFRLGWELKELSKVENEFKAEYEELSQQCKLFAKDLLDQARSSRELEIILNHRDDHSEELDPQKYHDLAKLKVAIKYHQKEFVAQPNCQQLLATLWYDGFPGWRRKHWVVKLLTCMTIGFLFPMLSIAYLISPRSNLGLFIKKPFIKFICHTASYLTFLFMLLLASQHIVRTDLHVQGPPPTVVEWMILPWVLGFIWGEIKEMWDGGFTEYIHDWWNLMDFAMNSLYLATISLKIVAYVKYNGSRPREEWEMWHPTLIAEALFAISNILSSLRLISLFTANSHLGPLQISLGRMLLDILKFLFIYCLVLLAFANGLNQLYFYYETRAIDEPNNCKGIRCEKQNNAFSTLFETLQSLFWSVFGLLNLYVTNVKARHEFTEFVGATMFGTYNVISLVVLLNMLIAMMNNSYQLIADHADIEWKFARTKLWMSYFDEGGTLPPPFNIIPSPKSFLYLGNWFNNTFCPKRDPDGRRRRHNLRSFTERHADSLIQNQHYQEVIRNLVKRYVAAMIRNSKTNEGLTEENFKELKQDISSFRYEVLDLLGNRK
# Target: the molecule itself
# Test: cryo-EM structure
protein,measurement,value
B1,stoichiometry N,4

# Reference: publication doi:10.1101/467969 (bioRxiv, 2018)
